# Measured values published in the supplement of paper PMC10126150.
# ± gives the standard deviation of the averaged measurements.
# System: ATP
# Test: switch fluorescence ratio, 500 uM ATP over buffer (Cy3 cluster intensity, sum of 5 cycles each) (fold (ratio)); higher = stronger signal-on switching upon ATP binding; sequences stand for … in TCGTCGGCAGCGTCAGATGTGTATAAGAGACAGTTTTTTTTTTTTTTTTTTTTTTTTT…TC
# Settings: aptamer strand: ATP DNA aptamer (quencher-CACCTGGGGGAGTATTGCGGAGGAAGG + anchor), 100 nM annealed; ATP concentration: 500 uM
# Procedure, shortened: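 After annealing to 100 nM quencher-labelled ATP aptamer, Cy3-labelled switching-strand clusters on a modified Illumina MiSeq flow-cell were imaged in selection buffer. A second image followed after 15 min with 500 uM ATP at 22 °C, and five such buffer/ATP cycles were done, each separated by NaOH stripping and re-annealing. The fluorescence ratio, averaged per switch-domain sequence, is summed target-cycle over summed buffer-cycle Cy3 intensity per cluster, with clusters outside 100-1000 RFU excluded.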
# 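Note: ATP exposure 15 min at 22 °C before imaging.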
row,Sequence,switch fluorescence ratio
1,GTAATAAGAT,0.996 ± 0.0046
2,TGAAACCACT,1.1 ± 0.013
3,CGTCCGACTT,1.2 ± 0.089
4,TTTTTTGTCG,0.993 ± 0.053
5,AGGTGGGGGC,1.003 ± 0.0095
6,GGGGTACGGG,1.05 ± 0.024
7,TATGGGGTTA,0.981 ± 0.028
8,TAAAATACGT,0.995 ± 0.042
9,GGGAGCTGAG,1.015 ± 0.0055
10,TTTATAAGTT,0.986 ± 0.023
11,AGGGGTGGGA,1.01 ± 0.02
12,TAAAATTGGT,0.983 ± 0.027
13,TTTTTCGTCA,1.037 ± 0.0074
14,TTAGGTGTCT,0.998 ± 0.071
15,GCCGATAGGT,1.08 ± 0.12
16,AGGGTAATCG,1.02 ± 0.011
17,CATTTTCCGG,1.11 ± 0.16
18,TAGACGTAGG,1.03 ± 0.028
19,AGCTTATGTC,0.935 ± 0.057
20,TATGGGCACG,0.99 ± 0.024
21,TTGGCCTTTT,1.09 ± 0.12
22,CGTACGTGGC,1.125 ± 0.0035
23,GAGGGGTTCG,1.01 ± 0.022
24,CAGAACTGCG,1.01 ± 0.015
25,CAAGTATCGG,0.973 ± 0.027

row,Sequence,switch fluorescence ratio
1,TGGCGCCATT,1 ± 0.072
2,AGGTATTATC,0.968 ± 0.014
3,AGACTAGTTT,1.02 ± 0.015
4,AGGGAAGGGG,1.1 ± 0.17
5,TCAGTCTTTT,0.998 ± 0.016
6,AGTATTTTTA,1.01 ± 0.012
7,TCGGTTGTCT,1.02 ± 0.052
8,TTATGAGGCA,0.978 ± 0.026
9,ATGATAAGTA,1.006 ± 0.0034
10,TTTGGGGGGA,1.05 ± 0.21
11,GGGTCTAGGT,0.997 ± 0.03
12,CGTATGATAG,1.015 ± 0.0047
13,TATATTATGC,1.02 ± 0.011
14,CGGTTGTTTT,1.023 ± 0.0065
15,ACGAGGGTGG,1.065 ± 0.0084
16,GGGAGGAGGA,0.974 ± 0.026
17,TTCCGGGGCC,0.9978 ± 0.0032
18,AAGCCCGACG,1.13 ± 0.11
19,TATTATAAAT,0.98 ± 0.016
20,ATGCCAGGGA,1.01 ± 0.023
21,ATTAGGGGGA,1.03 ± 0.014
22,GGGGTACGCA,1.02 ± 0.015
23,CGGGGTCTGT,0.999 ± 0.022
24,TCGGCAAGTT,1.2 ± 0.33
25,AATGTTTCTG,0.998 ± 0.038

row,Sequence,switch fluorescence ratio
1,ATATTTATTG,0.998 ± 0.04
2,CACGGGGAAC,1.28 ± 0.32
3,ATTGTATGGG,0.9744 ± 0.0071
4,GTGGCTAACG,0.972 ± 0.06
5,AACGTTTAAA,1.04 ± 0.1
6,GATTAAGGGT,1.04 ± 0.03
7,GTTCTGGGGG,0.984 ± 0.024
8,GCGCTCGTCG,1.07 ± 0.012
9,TAAAGGGATG,0.956 ± 0.017
10,TTGATTAGTT,0.982 ± 0.036
11,GGTGGACAAC,0.997 ± 0.013
12,TGGTCAGCTA,1.02 ± 0.025
13,ACGGGCTGGG,1.1 ± 0.02
14,TGGTATTGTG,0.947 ± 0.021
15,GGTCTCTTAC,1.02 ± 0.037
16,TTTCGCTC,1.06 ± 0.019
17,GCTTGTGCTG,0.978 ± 0.053
18,CGAAAAAAAT,1.03 ± 0.035
19,TTACGCATCA,1.14 ± 0.021
20,ATGTTGTTTG,0.979 ± 0.014
21,ATGTTTGCCT,1.002 ± 0.0087
22,CCGTTTGCAG,1.13 ± 0.15
23,TTTCCGGCGG,1.12 ± 0.09
24,TGTGTATTTT,0.992 ± 0.028
25,GGACGCATAA,3.51 ± 1.3

row,Sequence,switch fluorescence ratio
1,TGTATTATGG,0.968 ± 0.0097
2,GGGGGTGAAA,0.987 ± 0.011
3,CCGTGTTTTT,0.988 ± 0.032
4,TAATCCACGG,1.05 ± 0.064
5,ATTAGTGATA,0.9756 ± 0.0025
6,AGAAAAAACG,1.05 ± 0.092
7,TCGTGGGAAA,2.11 ± 1.5
8,GGAGGCGGGG,1.08 ± 0.18
9,AACGTGGGGC,1.01 ± 0.05
10,ATGGGCGTAC,1.03 ± 0.054
11,TGAGTACAGC,1.03 ± 0.092
12,CCTTCCCGGG,1.59 ± 0.0072
13,TTGTTGGTCT,1.009 ± 0.0075
14,CAGAGGTCGT,1.013 ± 0.0081
15,GATACTCAGC,1.06 ± 0.0058
16,TTTGATCTCG,1.0054 ± 0.00071
17,GAAATTGGGA,1.08 ± 0.12
18,TTCCGTATGA,1.05 ± 0.043
19,CAGGTTGGAG,1.15 ± 0.24
20,GGACTATGCT,0.962 ± 0.011
21,TGATGAGGAT,1.007 ± 0.0083
22,TCTTGAGCAT,1.34 ± 0.13
23,AAAGGGGGTC,1.01 ± 0.039
24,CTCCATCGGG,1.31 ± 0.033
25,GCGTCGGGCA,0.997 ± 0.027

row,Sequence,switch fluorescence ratio
1,AGTCGGGTCT,1.05 ± 0.083
2,CGGGATGATC,0.9966 ± 0.0069
3,ATGGGGGGG,1.01 ± 0.014
4,TTGTGGTGAG,0.987 ± 0.016
5,AAGAAGTAGG,1 ± 0.062
6,GAGTGGTTGC,1.05 ± 0.12
7,AGGGCTTTTG,1 ± 0.063
8,CGATTCGTCT,1.05 ± 0.05
9,CACTGGGGGA,0.9949 ± 0.0013
10,TTAGGGGGT,0.976 ± 0.059
11,TAGCGCATGG,1.08 ± 0.046
12,TGGGTATGAA,0.977 ± 0.019
13,GTTTGAAGCG,1 ± 0.054
14,AGAAAAGCTC,1.02 ± 0.033
15,AAGTGTAAGG,1.018 ± 0.0039
16,GGGGGATGG,0.994 ± 0.016
17,GGCTTAATGG,1.01 ± 0.023
18,CGGGCATTAG,1.209 ± 0.0071
19,CGAGCTTTGA,1.034 ± 0.0084
20,GTTCTTTGGG,0.995 ± 0.013
21,TACGTTTTCT,1.02 ± 0.049
22,TGACGGGAAT,1.01 ± 0.013
23,ACTTTGTTCT,1 ± 0.027
24,AATTGTATTA,0.973 ± 0.041
25,CTTAGGGCAC,1.05 ± 0.016

row,Sequence,switch fluorescence ratio
1,ATGTTGGTTT,0.996 ± 0.021
2,TTATCAGTTT,1.03 ± 0.062
3,ATACCGAAGT,1.17 ± 0.18
4,GGGGTCACTA,0.9559 ± 0.009
5,TGGTTGGTGT,1.06 ± 0.015
6,AAGAGGGGAT,0.985 ± 0.031
7,ATGTTCTCCG,1.14 ± 0.035
8,CAGAGTTTGA,0.969 ± 0.0047
9,AGGATGCTCA,1.01 ± 0.011
10,TTTTAAAAGT,1 ± 0.03
11,TACTCGTGGT,1 ± 0.064
12,AATATTTGG,1.008 ± 0.0091
13,GTATGAATTA,0.985 ± 0.033
14,TCAATCAGAG,1.01 ± 0.0045
15,GTGAGAGGTG,1.05 ± 0.052
16,AAGTGGTGTT,0.984 ± 0.028
17,TCCTTCAAAG,1.08 ± 0.085
18,TATAGTCATT,1.02 ± 0.022
19,TTCCGTTGTG,0.98 ± 0.049
20,GACTGGGTCG,1.06 ± 0.012
21,TTGAAATAGG,1.03 ± 0.011
22,GTGAGAAAGG,0.982 ± 0.015
23,GGGGTAGCGG,0.92645 ± 0.0002
24,CGATATGGTT,1 ± 0.025
25,CGTGGAGGTA,0.985 ± 0.041

row,Sequence,switch fluorescence ratio
1,CGCTGATGGG,1.01 ± 0.071
2,ACAGTTCTTG,0.997 ± 0.023
3,CATGGGTTGC,0.99 ± 0.029
4,GATCGAGGCG,0.9569 ± 0.0055
5,GGTGGGCGGG,1.01 ± 0.016
6,GGGAGGTTGC,1.09 ± 0.23
7,AGTGGGGGAT,0.988 ± 0.028
8,TCACTATACA,1.315 ± 0.0077
9,TAACGCCCTA,1.07 ± 0.019
10,TATGTATGC,1.03 ± 0.014
11,TTTATAAGTA,1.02 ± 0.026
12,AAACTCTCCA,1.04 ± 0.02
13,GATATGCTAT,0.9915 ± 0.0066
14,GGAGTCCAGG,1.15 ± 0.032
15,CGTATATTGT,0.983 ± 0.061
16,CTTCTACGAT,0.998 ± 0.013
17,GGATGTGCG,0.961 ± 0.05
18,GCTCTTCCCG,1.319 ± 0.011
19,TCCCGATTTC,1.07 ± 0.024
20,ATTCATCATT,1.003 ± 0.0043
21,ATGCAAGGCA,1.02 ± 0.04
22,ATGATTTCTA,0.986 ± 0.024
23,CAGCTGGGAG,1.03 ± 0.011
24,TGTTAGTTTT,0.981 ± 0.013
25,TGGGTTCTGA,0.98 ± 0.011

row,Sequence,switch fluorescence ratio
1,GCGGCATAAT,1.02 ± 0.026
2,TCATGGGCGC,1.01 ± 0.014
3,CGAGGATTTC,0.9885 ± 0.0094
4,CGACTCATAT,1.52 ± 0.11
5,TGATATCAAG,0.979 ± 0.013
6,AGTTGGACAG,1.02 ± 0.012
7,AGAAGAGTGT,1.03 ± 0.038
8,CGGAGCAGTG,1.75 ± 0.055
9,CTTTGTAGTA,0.977 ± 0.034
10,TTTTTGCTGT,2.91 ± 3.3
11,TCGGGGCGTG,1 ± 0.027
12,TACGGGGACT,1.11 ± 0.028
13,GCGTCTAAGG,0.981 ± 0.021
14,TTTCGTTCTC,1.008 ± 0.0045
15,TTCGTTAAGC,1.07 ± 0.1
16,TGGCAATGAA,1.28 ± 0.35
17,GACGGTAGAG,1.03 ± 0.02
18,TCGGGATAGT,1.03 ± 0.039
19,AATATATTGA,0.996 ± 0.02
20,CGGTTTGGGA,0.994 ± 0.035
21,TGTAGTGTTG,1 ± 0.043
22,CGGTGCTTTT,1 ± 0.011
23,TCAGAGGCTT,0.996 ± 0.04
24,AAATGCCGTT,0.982 ± 0.015
25,AAATGTGTCT,1.01 ± 0.04
